In patent US20240209065A1 (SINGLOMICS BEIJING DANXU BIOPHARMACEUTICALS, published 2024):

B1: XG014 IgG (antibody, V domains shown)
VH: EVQLVQSGAEVKKPGESLKISCKGSGYSFSNYWIGWVRHMPGKGLEWMGIIYPGDSDTRYSPSFQGQVTISVDTSISTAYLQWSSLKASDTAMYYCTRHQYGYNYGYFYYYIDVWGKGTTVTVSS
VL: QSVLTQPPSVSAAPGQKVTISCSGSSSNIGNNPVSWYRQVPGTAPKLLIYDNNKRPSGIPDRFSGSKSGASATLGITGLQTGDEADYYCGTWHTSLSSGVFGGGTKLTVL
B2: DXP-604 dimeric IgA1 (antibody)
heavy: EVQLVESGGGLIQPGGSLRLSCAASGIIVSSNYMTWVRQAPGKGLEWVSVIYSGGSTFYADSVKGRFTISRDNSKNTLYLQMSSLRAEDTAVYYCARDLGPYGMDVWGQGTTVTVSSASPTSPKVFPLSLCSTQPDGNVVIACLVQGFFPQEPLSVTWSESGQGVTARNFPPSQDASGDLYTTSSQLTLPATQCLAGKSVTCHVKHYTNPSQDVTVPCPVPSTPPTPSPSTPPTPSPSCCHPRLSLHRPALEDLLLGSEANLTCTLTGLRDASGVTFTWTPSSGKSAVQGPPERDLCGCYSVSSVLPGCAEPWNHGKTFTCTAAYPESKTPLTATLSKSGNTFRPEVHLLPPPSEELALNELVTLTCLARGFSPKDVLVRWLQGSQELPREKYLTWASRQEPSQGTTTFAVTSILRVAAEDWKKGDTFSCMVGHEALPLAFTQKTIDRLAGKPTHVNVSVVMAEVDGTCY
light: DIQLTQSPSFLSASVGDRVTITCRASQGISSDLAWYQQKPGKAPNLLIYAASTLQSGVPSRFSGSGSGTEFTLTISSLQPEDFATYYCQQLNSDLYTFGQGTKLEIKRTVAAPSVFIFPPSDEQLKSGTASVVCLLNNFYPREAKVQWKVDNALQSGNSQESVTEQDSKDSTYSLSSTLTLSKADYEKHKVYACEVTHQGLSSPVTKSFNRGEC
chain: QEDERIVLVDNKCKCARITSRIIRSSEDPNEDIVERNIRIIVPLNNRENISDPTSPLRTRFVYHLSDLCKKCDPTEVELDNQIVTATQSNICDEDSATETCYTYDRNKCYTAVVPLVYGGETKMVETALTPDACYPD
B3: DXP-604 secretory IgA1 (antibody)
heavy: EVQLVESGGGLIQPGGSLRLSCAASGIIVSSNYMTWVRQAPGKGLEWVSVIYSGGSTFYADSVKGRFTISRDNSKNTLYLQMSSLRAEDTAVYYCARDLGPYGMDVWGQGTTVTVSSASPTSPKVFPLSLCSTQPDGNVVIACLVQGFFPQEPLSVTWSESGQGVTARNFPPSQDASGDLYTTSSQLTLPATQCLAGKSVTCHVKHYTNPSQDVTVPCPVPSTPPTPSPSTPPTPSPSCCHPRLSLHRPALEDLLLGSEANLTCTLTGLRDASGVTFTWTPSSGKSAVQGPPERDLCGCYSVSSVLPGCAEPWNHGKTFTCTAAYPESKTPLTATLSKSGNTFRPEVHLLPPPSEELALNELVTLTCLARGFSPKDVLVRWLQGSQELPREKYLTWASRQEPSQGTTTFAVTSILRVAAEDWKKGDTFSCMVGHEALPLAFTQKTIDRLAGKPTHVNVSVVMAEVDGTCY
light: B2 light
chain 1: not shown
chain 2: not shown

Columns and labels:
[1] = target: S protein of authentic SARS-CoV-2 G614 virus (SARS-CoV-2, UniProt P0DTC2 14-1273); experiment: cell-based or functional assay
[2] = target: S protein of authentic SARS-CoV-2 G614 virus (SARS-CoV-2, UniProt P0DTC2 14-1273); experiment: cell-based or functional assay; remark: listed apart in the source

Binder	IC50, microneutralization assay with authentic virus [1] [nM]	IC50, microneutralization assay with authentic virus [2] [nM]
B1	0.24	
B2		0.11
B3		0.04
